Experiments:
[1] = target: tagged human CD19 recombinant protein (human) (UniProt P15391); experiment: flow cytometry; transduced oNK cells stained with tagged CD19 recombinant protein and fluorescent anti-Myc antibody, after sorting
[2] = target: CD19 on Raji-Luc cells (CD19+ B cell lymphoma cell line) (human) (UniProt P15391); experiment: cell-based or functional assay
[3] = target: tagged human CD19 recombinant protein (human) (UniProt P15391); experiment: flow cytometry; transduced oNK cells stained with tagged CD19 recombinant protein and fluorescent anti-Myc antibody, before enrichment

double positive of fluorescent signal of expressed Myc tag and bound human CD19 recombinant protein (% of cells) [1]: 82.3%
double positive of fluorescent signal of expressed Myc tag and bound human CD19 recombinant protein (% of cells) [3]: 9.06%
Substance: anti-CD19 chimeric antigen receptor (CAR) expressed on oNK cells (CAR19-oNK)
percentage of cytotoxicity (luciferase luminescence), E:T 0.2:1, 1 hour [2]: 13.9%
percentage of cytotoxicity (luciferase luminescence), E:T 0.5:1, 1 hour [2]: 45.9%
percentage of cytotoxicity (luciferase luminescence), E:T 1:1, 1 hour [2]: 64.1%
percentage of cytotoxicity (luciferase luminescence), E:T 2:1, 1 hour [2]: 80%
percentage of cytotoxicity (luciferase luminescence), E:T 5:1, 1 hour [2]: 91.4%
